Laboratory results reported in article PMC11169420, “The kinase ZYG-1 phosphorylates the cartwheel protein SAS-5 to drive centriole assembly in C. elegans” (EMBO Reports, 2024).

B1: GST-ZYG-1(1-250) K41M (kinase domain, C-terminal 6X-His) (domain or fragment, C. elegans, UniProt Q9GT24 1-250, looked up)
chain: MSGGKSGSRLSAYSHLKEIGKGGFGVVYAAQRENGEKVAIMRIDKKVPKNRVWTEIQTMKELKKSKYVVEFYEDFVEDGYTYIVMELCEGGSLQAYVREHGALDDATAVHVLRQLISAVSFMHRVNVIHRDLSAGNVFIKDSKKKKMTVKLGDFGLATTLGRGETTCTIVGTPGFIAPQVYDQEYTQSADVYSLGAVLYTMLTARNPPPKGLPPTCGMSPNAARLVEQMMDTDAKKRIPLTQIVLSEFMY
notes: ZYG-1 of C. elegans, kinase domain, residues 1-250, with K41M (used to reduce toxicity to E. coli); also called kinase domain (amino acids 1-250); not shown: GST, N-terminal, kept; His6, C-terminal, kept
B2: GST-ZYG-1 cryptic polo box (CPB) fragment spanning 338-564 (domain or fragment, C. elegans, UniProt Q9GT24 338-564, looked up)
chain: GTVPPSREDRNRSQLWPIRMDRLEGQRVCTAGGRYIVELDTRCRFEVAAQGNFVKRILIVEVDEMVQTVYVHRIPDRTVRGRNGEEELITLTNNPFVYTSYSQMPKEVQNDYMRLQKMVAVTISGRVAKVTFRRPSQFPDAQAQLMENGDLRIKLPRSVIVRKMDNGEIFNCIDGIATQKQAVSGITLTKVNEVYKYLIRFEQCLNGMDRGMVCFPIVFSAGTNMVG
notes: ZYG-1 of C. elegans, cryptic polo box (CPB), residues 338-564; also called ZYG-1 CPB; not shown: GST, N-terminal, kept; His6, C-terminal, kept

Key:
[1] = target: SAS-6 head domain (UniProt Q6UVJ0); details: cited from earlier work
[2] = target: T1, SAS-5::His6, full-length, refolded in vitro (C. elegans, UniProt Q20010 1-404, a glycine codon was introduced immediately next to initiator methionine); test: pull-down; GST-ZYG-1 fragment baits (4.32 mM as printed) on magnetic glutathione beads, blocked with Odyssey blocking buffer; full-length SAS-5 prey (0.2 mM as printed) 1 h at 4 °C; washed with 50 mM Tris pH 8.0, 300 mM NaCl, 5 mM DTT; immunoblot with anti-GST and anti-SAS-5; GST alone as negative control; details: both partners purified
T1 construct: SAS-5 of C. elegans, longer isoform SAS-5a, full length; codon-optimised gene in pET21b (NdeI/HindIII); a glycine codon was put next to the initiator methionine; Prey in the pull-downs with GST-ZYG-1 fragment baits; also called full-length SAS-5; SAS-5::6XHis; not shown: His6, C-terminal, kept
T1 sequence (looked up): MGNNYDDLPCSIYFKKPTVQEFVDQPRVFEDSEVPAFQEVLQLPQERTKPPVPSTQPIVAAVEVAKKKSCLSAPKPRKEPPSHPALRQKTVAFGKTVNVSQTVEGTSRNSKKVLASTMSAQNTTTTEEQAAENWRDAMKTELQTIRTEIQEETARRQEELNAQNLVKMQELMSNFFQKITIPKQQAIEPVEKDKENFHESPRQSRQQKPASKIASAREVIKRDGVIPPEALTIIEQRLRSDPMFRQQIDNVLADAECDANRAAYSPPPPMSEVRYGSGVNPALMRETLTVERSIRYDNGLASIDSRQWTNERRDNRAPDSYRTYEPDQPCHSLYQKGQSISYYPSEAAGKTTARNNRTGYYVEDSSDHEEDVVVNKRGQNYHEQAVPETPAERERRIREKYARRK

| Molecule | Kd [1] | binding result [2] |
| --- | --- | --- |
| SAS-6 head domain (from UniProt Q6UVJ0) | 75 µM |  |
| B1 |  | binds |
| B2 |  | binds |
